Earlier results on one substance are cited in article PMC6540754.

This series concerns the target BfrB (Pseudomonas aeruginosa) (UniProt Q9HY79).
UniProt Q9HY79, sequence (Q9HY79 whole entry): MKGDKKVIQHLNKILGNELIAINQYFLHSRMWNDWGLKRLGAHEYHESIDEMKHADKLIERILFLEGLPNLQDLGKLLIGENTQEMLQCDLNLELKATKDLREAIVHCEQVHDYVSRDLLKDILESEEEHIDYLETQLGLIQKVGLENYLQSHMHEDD

On to Bfd (from UniProt Q9HY80), for which the Kd is 3.4 µM.
